Test: soluble on expression in E. coli; label from the status in PepcDB or PDB records

Q: Which “soluble on expression in E. coli” value does the source give for “MTEQLFDSLAKQNGFRVLSGGKYGGNNGFDHVWQAADGSVVLIVESKQIRNGTVQLNPNGAGGYTQMSREWIKQVVKSLPDGSPAKAVVLKANQNGKLKTAIAGVDRQTGKAVILSVKVPSKTNIRR” here?
A: Its value is “not soluble”.

Q: With “MAHHHHHHMYGDKGPPKGYSVPRFDTNASKRCQTCSSTVHWTFECPLKNSATLSAKKSAATTVKLSPSQMLRYGIKQKSANFVSEPTEREVFDAELRELRSVLTAEVRQELKAKKSAAHKSGNDCKKHEAPLPSAAPKKEPPSDSVTMKTERTEEEE” as the sequence, how does the “soluble on expression in E. coli” value read?
A: Its value is “soluble”.

Q: Which “soluble on expression in E. coli” value does the source give for “MSLDTSRRRRLARRSIAASFRLFLTVAKGLGVLDYRIDGAEILHQERGCLVVANHPTLIDYVLLASVMPETDCLVKSALLKNPFLGGVVRATDYLINSEAETLLPRCQQRLAQGDTILIFPEGTRTKPGEKMTLQRGAANIAVRCASDLRIVTIGCSEHLLDKQSKWYDVPPDRPFFTVAVHGRVEINKFYDATSQEPALAARQLNRHLLLQLQQGCLPLSGINNASALSGNEGHHHHHH” here?
A: The value was “not soluble”.

Q: For “MGSDKIHHHHHHMSTNALRGKAAIVGFGDSYCKRGEVKSAMRLAQEATRRALDDAGLNKDEIDGLLTGRAPMSDQRHQWNNIFAAYNKITPRYASEITIHAAGMNSMLKHAALAVTSGVARFVLCVGADAAASQPTVRAQIGGMDADPEFEQPYEPIIPTIYAQMACRLMHEYGMSEEDFSAVAVQCQEWAVHHPYAAKGHKGLVTIDDVMRSPMIASPLRLWHCAPWGPPGTAGAVIVTDADTARSMSDRPIYLLGAGECQTHEYLSDRMALRSSILPLGDLPNITSTGCRVAGDAAFSMAGLRPDDINVVQTASQFAHVELQVLAELGFTDLRAAGEFVRSGATGPQGALPTNTNGGWLSFGQPGVSCVMDSISETIRQLRGEALGLQVQDAHIGLVHGNGGMQACHSVAILGREP”, which “soluble on expression in E. coli” value is on record?
A: Its value is “not soluble”.

Q: With “MDNRVREACQYISDHLADSNFDIASVAQHVCLSPSRLSHLFRQQLGISVLSWREDQRISQAKLLLSTTRMPIATVGRNVGFDDQLYFSRVFKKCTGASPSEFRAGCE” as the sequence, how does the “soluble on expression in E. coli” value read?
A: Its value is “soluble”.

Q: For “QNFAIPTSSLEKTLLIGDYLFVSKLSYGPRSPMTPLGVPLTHNTMPLTGGKSFSDKPLLPYKRLKGFGHVKEGDLVVFNFPAGDTVAVKQPNPDYYMWKKLVGREELWSNPDFYGEIVYRPVDRRDHYVKRCVGMPGQELSIRNNQIYIDGKEQRNPRNMQLNYLVRMSREMSVDLIDELGISYDDVRAASSEELKASVGSNLIDSASNQPQIIYHLPLTQGMLDKLQAEPSFVKAVEEPTPIGPLYPLEYETGWTRDNYGPIVIPAKGMTVRLTPLNLALYSRCIRNFEGNKLVQKADGTVLINGRPADSYTFKMDY”, which “soluble on expression in E. coli” value is on record?
A: Its value is “not soluble”.

Q: Which “soluble on expression in E. coli” value does the source give for “MIISTDLQLLISPMQWDQVASEIAQQLSAVGYNVTDIRAEVIDLTCEPDNMLVNQWQQEHGTIPTSEQLHRVVITGEFDGELRKATECVVRQLPEGSYWYGTSLVGEIEPSVTAACAWQADV” here?
A: The value was “not soluble”.

Q: For “MNSSTANKQKGIQLIPFTVDKVVEQVNEIPPGVQLIHAPQVWEKSAKGKDIVVAVLDTGCDMNHIDLKDRIIGGRNFTKDYEGDPNIYLDNNGHGTHVAGTIAATENGVGVLGVAPLAKMLVLKVLAGDGSGSYEQIIEAIHYAVNWRGPNKERVRVISMSLGGPQDVPELHEAIQNAVKQDVLVVCAAGNNGDCNDNTEELDFPGAYSEVIEVGAVNLERKIACFSNSNQEIDLVAPGDEILSTYPEGKYAVLSGTSMATPHVAGALALLIKQCEREYGRKLSEPEIYAQLIKRTVPLGYERTSEGNGLIDLLKE”, which “soluble on expression in E. coli” value is on record?
A: Its value is “not soluble”.

Q: With “MPQLSPWQHYQKDLTRDGFSHDPAQEIAVKALQRVYEDLTAAEEPNSLFGKLFTSFGLTSAPAPTKGLYLWGGVGRGKTYLMDTFFDTLPGNQKLRAHFHRFMHQLHLDLDALKGTRDPLLVIAKQMAAKYRVICFDEFFVSDITDAMLLGTLFQALFKEGVVLVATSNIIPDDLYKNGLQRARFLPAIALINQHCEVLNVDSGIDYRLRTLEQAEIYHHPLDEQADTNLLRYFGQLAPEAEISTEAIEIEGRAISIRQQAQGVLLADFRALCDGPRSQRDYMELARIYHTVLVSGIEQMGAFLTGDDIARRFLAMVDEFYERNVKLIVSAQVPLEDIYADGLLSFEFRRCRSRLIEMQSHDYLKSEHLPAAALEHHHHHH” as the sequence, how does the “soluble on expression in E. coli” value read?
A: Its value is “soluble”.

Q: With “MADEQEIMCKLESIKEIRNKTLQMEKIKARLKAEFEALESEERHLKEYKQEMDLLLQEKMAHVEELRLIHADINVMENTIKQSENDLNKLLESTRRLHDEYKPLKEHVDALRMTLGLQRLPDLCEEEEKLSLDYFEKQKAEWQTEPQEPPIPESLAAAAAAAQQLQVARKQDTRQTATFRQQPPPMKACLSCHQQIHRNAPICPLCKAKSRSRNPKKPKRKQDE” as the sequence, how does the “soluble on expression in E. coli” value read?
A: The value was “not soluble”.

Q: For “SPEIMKNLSNNFGKAMDQCKDELSLPDSVVADLYNFWKDDYVMTDRLAGCAINCLATKLDVVDPDGNLHHGNAKDFAMKHGADETMAQQLVDIIHGCEKSAPPNDDKCMKTIDVAMCFKKEIHKLNWVPNMDLVIGEVLAEV”, which “soluble on expression in E. coli” value is on record?
A: Its value is “soluble”.

Q: Which “soluble on expression in E. coli” value does the source give for “MENEKIWIKELKEKRLAYGVSQNKLAVASHITRPYLSDIETGKAVPTQQVKEDLLNALERFNPDNPLEMLFDYVRIRFPTNDVAQIIGEVLRLNMDYMLHEDFGYYSYPEHYRFGDIVVLVSHDVSKGVLLELKGKGCRQFENFLLAQHRSWYDFFQDCMEHKGIFKRLDLAINDKTGILNIPDLAKKCKQEECISVFRSFKNYRSGELVHRDEKPYMGNTLYIGSLKSEVYFCIYEKDYEQYVKNDVPLEDAEVKNRFEIRLKNDRATQAMKDLLAHQQAEKTAFEIINRYIRFADKDDTKRRSDWKTNERWEWFIGKNRGALRLTTQPEPYSFERTLNWLHHQVAPTLKIASILDVLNGTTIISTMIQEAKLTEKHEKLIEQQHLAMEDLIT” here?
A: Its value is “not soluble”.

Q: For “GPHMPEQYRYTLPVKAGEQRLLGELTGAACATLVAEIAERHAGPVVLIAPDMQNALRLHDEISQFTDQMVMNLADWETLPYDSFSPHQDIISSRLSTLYQLPTMQRGVLIVPVNTLMQRVCPHSFLHGHALVMKKGQRLSRDALRTQLDSAGYRHVDQVMEHGEYATRGALLDLFPMGSELPYRLDFFDDEIDSLRVFDVDSQRTLEEVEAINLLPAHEFPTDKAAIELFRSQWRDTFEVKRDPEHIYQQVSKGTLPAGIEYWQPLFFSEPLPPLFSYFPANTLLVNTGDLETSAERFQADTLARFENRGVDPMRPLLPPQSLWLRVDELFSELKNWPRVQLKTEHLPTKAANANLGFQKLPDLAVQAQQKAPLDALRKFLETFDGPVVFSVESEGRREALGELLARIKIAPQRIMRLDEASDRGRYLMIGAAEHGFVDTVRNLALICESDLLGERVARRRQDSRRTINPDTLIRNLAELHIGQPVVHLEHGVGRYAGMTTLEAGGITGEYLMLTYANDAKLYVPVSSLHLISRYAGGAEENAPLHKLGGDAWSRARQKAAEKVRDVAAELLDIYAQRAAKEGFAFKHDREQYQLFCDSFPFETTPDQAQAINAVLSDMCQPLAMDRLVCGDVGFGKTEVAMRAAFLAVDNHKQVAVLVPTTLLAQQHYDNFRDRFANWPVRIEMISRFRSAKEQTQILAEVAEGKIDILIGTHKLLQSDVKFKDLGLLIVDEEHRFGVRHKERIKAMRANVDILTLTATPIPRTLNMAMSGMRDLSIIATPPARRLAVKTFVREYDSMVVREAILREILRGGQVYYLYNDVENIQKAAERLAELVPEARIAIGHGQMRERELERVMNDFHHQRFNVLVCTTIIETGIDIPTANTIIIERADHFGLAQLHQLRGRVGRSHHQAYAWLLTPHPKAMTTDAQKRLEAIASLEDLGAGFALATHDLEIRGAGELLGEEQSGSMETIGFSLYMELLENAVDALKAGREPSLEDLTSQQTEVELRMPSLLPDDFIPDVNTRLSFYKRIASAKTENELEEIKVELIDRFGLLPDPARTLLDIARLRQQAQKLGIRKLEGNEKGGVIEFAEKNHVNPAWLIGLLQKQPQHYRLDGPTRLKFIQDLSERKTRIEWVRQFMRELEENAIA”, which “soluble on expression in E. coli” value is on record?
A: Its value is “soluble”.

Q: For “MSLSVKIVIKPNTYFDSVSLMSISTRANKLDGVEQAFVAMATEMNKGVLKNLGLLTPELEQAKNGDLMIVINGKSGADNEQLLVEIEELFNTKAQSGSHEARYATIGSAKKHIPESNLAVISVNGLFAAREARQALQNDLNVMLFSDNVSVEDELALKQLAHEKGLLMMGPDCGTAIINGAALCFGNAVRRGNIGIVGASGTGSQELSVRIHEFGGGVSQLIGTGGRDLSEKIGGLMMLDAIGMLENDPQTEIIALISKPPAPAVARKVLERARACRKPVVVCFLDRGETPVDEQGLQFARGTKEAALKAVMLSGVKQENLDLHTLNQPLIADVRARLQPQQKYIRGLFCGGTLCDETMFAVMEKHGDVYSNIQPDPEFRLKDINRSIKHTFLDFGDDDFTNGKPHPMIDPTNRISRLIEEARDPEVAVIVMDFVLGFGSHEDPVGSTIETIKEAKAIAAAEGRELIILAYVLGTDLDTPSLEQQSQMLLDAGVILASSSTNTGLLAREFICKGEEGHHHHHH”, which “soluble on expression in E. coli” value is on record?
A: Its value is “soluble”.

Q: For “RQACYQEIIDTILSKKPHAFESLVVLLLQKMGYGGEIKQSGLVTPYSNDGGIDGIIKEDVLGFGRIHIQAKRYALENSVQRQEIQSFVGALAVAQSNKGVFITTSSFSRGAIQYAVGLNGSTTLILIDGQKLAEYIYEYGVGLQVEHTVEIKKLDSEFWDSMENEAGVPDL”, which “soluble on expression in E. coli” value is on record?
A: The value was “not soluble”.

Q: With “RPIGIYEKATPTHCTWLERLNFAKELGFDFVEMSIDERDERLARLDWSKEERLEVVKAIYETGVRIPSICFSGHRRYPLGSKDPVLEEKSLELMKKCIELAQDLGVRTIQLAGYDVYYEEKSPQTRQRFIKNLRKACDWAEEAQVVLAIEIMDDPFISSIEKYLAIEKEIDSPFLFVYPDIGNVSAWHNDIYSEFYLGHHAIAALHLKDTYAVTESSKGQFRDVPFGQGCVKWEEAFDILKETNYNGPFLIEMWSENCETVEETRAAIQEAQAFLYPLIKKAGLM” as the sequence, how does the “soluble on expression in E. coli” value read?
A: The value was “not soluble”.

Q: With “MNSVLSNIEKLDTYILRRNEYVAESKDEPNKLNTSRKLEVTTKKNQSNNKKRPPPINKARKSLPSIFRRAEENKDSAQIITPTGSKIIGSPLYKRSKSDSFFDHAFNFDKNLGKGSFGEVVAATCRSTSKKFAIKKIPFSKLSKDQYREAYGHMNIPCHPNIVRFHQAWIDKQILHIQLEMCDKSLAAYCHGIDWLEDKELWNVFLDILQGLGHLHNNFMLHNDIKPDNIFMTKNKVCKLGDFGLISDMRSEPINNSSNKHYQSEGDGKYCSKEAINGTLSIFSDIFSFGISILEVGTNIHLPSYGTGWEPIRKWEIPEEILEPMSDELRELVKQMMDKAPTRRPTCSELMKNHVVKEKLRIRKQEVEHIPSESQFQPISYLTTESPLGSRESSCSSIDFLDHFENAEKKTPFVSKLNFDLEDDEDEYEVFSPPRTPVKKSRYQQTMPEVSPPRKIQKLFQRKNLFDE” as the sequence, how does the “soluble on expression in E. coli” value read?
A: The value was “not soluble”.

Q: Which “soluble on expression in E. coli” value does the source give for “MRRLGKQEIEDIAVGAALLGTGGGGDPYIGKLMALQAIEEYGPIQLLSVDEIDDEAVVVPSGMMGAPTVMIEKVPNGEEAIAAFQTLEQYLGKKIFATMPIEAGGINSLLPLALAARLGLPVVDVDGMGRAFPELQMVTFYLDGISATPLVIADEKGNHSVLNTVNNMWAERIARAATIQMGGSVMMAIYPMVGKQLKESGIHHILKLEEDIGRIIREAKGTNANPIAEVLSLVGGFELFKGKVVDINRKTESGFARGTAHIQGFDLYHDQTLEIKFQNEHLLAKTPDQLLCVTPDLIAILDSETGLPITTEGLKYGARCVVIGIPCHPKWRTAKGIETCGPAYFGYDVDYVPVENLVKEGAQTKLEHHHHHH” here?
A: Its value is “soluble”.

Q: Which “soluble on expression in E. coli” value does the source give for “MSLREYRYSDAHLHYVDFFQESEGMPALIKAMDAAGVEQSMISGIPVAKKWHEDEPKRPRYYAGDDADAYWYSATDTYVAAALQQLPSDQRKRFHPFLSGFNPVDKNAVSHIERMLDLYPGLWQGIGEVFTRHDDLTALTSGDTPRANNEAMTRIYHLAAERDLPVLLHSNITSKRERNPLYLAEIEEPLRNHPHTRFIWAHAGSSMEIHRHQKQMDFLLPVLTRLLEDYPNLYVDLSWSVLQPYLLDEQGAPRKEWLALVEKYPERFMLGSDVVGRFGSLGEQMHGFKPFLDALPESVAHKVARENFLAVLPKARHEGHHHHHH” here?
A: The value was “soluble”.

Source: the DeepSol protein solubility set
